Data: the supplement of paper PMC9170038

System: MS2 coat protein
Assay: apparent KD of MS2 coat protein; designed switch direction (-1 OFF switch, 1 ON switch): -1; higher = weaker reporter binding
How it was run: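 SNAP-549-labelled MS2 coat protein was titrated, doubling from 0.7 or 1.5 nM to 3 µM, over designed RNA switches transcribed on Illumina chips by stalled E. coli RNA polymerase. Runs were done without input, with 200 uM small-molecule ligand, or with an oligonucleotide input. Apparent KD is the per-design median over clusters of curve-fitted normalised fluorescence.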

[1] = Eterna round: R95, input ligand: microRNA oligo, concentration not stated
[2] = input ligand: microRNA oligo, concentration not stated
[3] = Eterna round: R95, input ligand: FMN 200 uM
[4] = Eterna round: R95, input ligand: none

| Sequence | apparent KD of MS2 coat protein (input ligand: FMN 200 uM) | apparent KD of MS2 coat protein (input ligand: none) | apparent KD of MS2 coat protein [1] | apparent KD of MS2 coat protein [2] | apparent KD of MS2 coat protein [3] | apparent KD of MS2 coat protein [4] |
| --- | --- | --- | --- | --- | --- | --- |
| AACCAGCGAGGAUAUGCUUGAGCUUGUUCUGGUUAUAAUCGACUUGAGGAUCACCCAAGUAGAAGGUGCUGGCG [EX2 #57] (Eterna round: R97, puzzle: Exclusion 2) | 0.0426 µM | 0.02 µM | – | – | – | – |
| GGACCAUAUCAGGAUAUGACUAGCCUCGGCUAGUCAGAAGGGAUGACAUGAGGAUCACCCAUGUGAUCAGGUCC [E6/1-C2] (Eterna round: R97, puzzle: Exclusion 6) | 0.0595 µM | 0.0367 µM | – | – | – | – |
| UUAACCAGAGGAUAUGCGAAUAAAUAAAACUUUUUUUUUUAACAUGAGGAUCACCCAUGUAGAAGGCUGCAUUU [Ex2 #30] (Eterna round: R97, puzzle: Exclusion 2) | 0.0254 µM | 0.0251 µM | – | – | – | – |
| AUAAAGUGAGGAUAUAUAAGACACGGUGAUACACCGUGAAAAUAGAAGGUACAUGAGGAUCACCCAUGUAGGGC [Mod of Anonveat 18 - Jieux - Exclusion 4] (Eterna round: R97, puzzle: Exclusion 4) | 0.0336 µM | 0.0294 µM | – | – | – | – |
| AAACAGGGAGGAUAUACAUAGAUCCUCUAACCUAAUAGGUCACAUGAGGAUCACCCAUGUAGAAGGCCCUUAGG [Biinbebi] (puzzle: Exclusion 2) | – | – | 0.0143 µM | – | – | – |
| GGCAUGCAAGGAUAUACUUGCAGUGAUGUUCGAUAAAUUCUACUUGAGGAUCACCCAAGUAGAAGGUGCAUGCC [Exclusion 2 (Mod4 JL EX2 4.74 Vienna UCT mod of Mamaed)] (Eterna round: R97, puzzle: Exclusion 2) | 0.0152 µM | 0.0273 µM | – | – | – | – |
| CAGGUUAGAGGAUAUACGUAGGUACAGAUCUGUGUGUUUCUACAUGAGGAUCACCCAUGUAGAAGGCUAUCCUG [LRO-Excl2-10] (puzzle: Exclusion 2) | – | – | 0.0253 µM | – | – | – |
| ACAGUGUUAGGAUAUGUGUGAGUUAGUCUCGACUAGUCGAUGCAGAAGGAACAUGAGGAUCACCCAUGUAGAUC [EX4 #80] (Eterna round: R97, puzzle: Exclusion 4) | 0.136 µM | 0.064 µM | – | – | – | – |
| CCCAGUUAUUGAGGAUAUCCUACAUGAGGAUCACCCAUGUAAUAAAUGAGGAUUUCGGGUGUCUAGGAGAAGGCAAGGAUAGGC [Ostracism 22 - Jieux - Exclusion NG 2] (Eterna round: R96, puzzle: Exclusion NG 2) | 0.0637 µM | 0.0505 µM | – | 0.0398 µM | – | – |
| UUAUACGUUGAGGAUAUGCGAUUUAGUAUAGUUGUAGAAGGCGAUACAUGAGGAUCACCCAUGUUUAUGGGCAU [LRO-Ex6-08] (puzzle: Exclusion 6) | – | – | 0.268 µM | – | – | – |
| AAAACACAUGAGGAUCACCCAUGUGAGGAUAUGUCCAUAUUCGGCAAAUCGGAUAUGGACAGAAGGCACAUAAA [JR_Exclusion1_Sub014] (puzzle: Exclusion 1) | – | – | 0.0489 µM | – | 0.0547 µM | 0.0397 µM |
| GACCCAGAUGUAAGGAUAUCGAGCUGCGUCAGGUUCGAGAAGGUACAUGAGGAUCACCCAUGUGCAAGCACUCC [BmEX4 B.18] (Eterna round: R97, puzzle: Brourd's mod of Exclusion 4) | 0.0328 µM | 0.0174 µM | – | – | – | – |
| GACUGCCGAGGAUAUACAUGAGGAUCACCCAUGUGCUUCAGCAUUUUUUAAUGCAUGGGUAGAAGGCGGUAGUU [LRO-Excl3-14] (puzzle: Exclusion 3) | – | – | 0.0315 µM | – | – | – |
| GUGUUGCGAGGAUAUAUAAGGAAAUGUUCUUAGGAUAUGGAACAUGAGGAUCACCCAUGUAGAAGGUGCAUAUC [JR_Ex2_Sub048] (Eterna round: R97, puzzle: Exclusion 2) | 0.0481 µM | 0.0387 µM | – | – | – | – |
| AACCGCGGAGGAUAUACACGGUGAUACUGAACUCCGGCACGACAUGAGGAUCACCCAUGUAGAAGGCCGAAUAU [EX2 B.13] (Eterna round: R97, puzzle: Exclusion 2) | 0.151 µM | 0.0213 µM | – | – | – | – |
| GAUUAAUUAAUUAAUUAAUACAUGAGGAUCACCCAUGUAAUUUAAGAUCCUUAUACAAGCUUUGAUCUCGUAAUUAA [Stov1/4-A3] (Eterna round: R97, puzzle: Sensor, turn-off variant 1) | 0.12 µM | 0.12 µM | – | – | – | – |
| CACCGUUACUGAGGAUAUCCUACAUGAGGAUCACCCAUGUAAUAAAUGAGAAUUUCGGAUGUAUUGGAGAAGGCAGAAAUCGGC [Ostricism 62 - Jieux - Exclusion NG 2] (Eterna round: R96, puzzle: Exclusion NG 2) | 0.0527 µM | 0.0584 µM | – | 0.0484 µM | – | – |

| Sequence | apparent KD of MS2 coat protein (input ligand: FMN 200 uM) | apparent KD of MS2 coat protein (input ligand: none) | apparent KD of MS2 coat protein [1] | apparent KD of MS2 coat protein [2] | apparent KD of MS2 coat protein [3] | apparent KD of MS2 coat protein [4] |
| --- | --- | --- | --- | --- | --- | --- |
| ACUCAGUGAGGAUAUCGCCAGAGAACCGUAACGGUCUCUGAUGAGAAGGCACAUGAGGAUCACCCAUGUAAGCA [EX4 C.3] (Eterna round: R97, puzzle: Exclusion 4) | 0.278 µM | 0.174 µM | – | – | – | – |
| UCAGGCAAGUGUACAGCCAACAUGAGGAUCACCCAUGUCGGGAGAAGGACUGUUACACACCGCUCGUCUUACUUGCC [Eternabot (Original) Solution 35] (Eterna round: R97, puzzle: Sensor, turn-off variant 1) | 0.0183 µM | 0.0231 µM | – | – | – | – |
| AACACACAUGAGGAUCACCCAUGUGAGGAUAUCGUCGAGGUUGUAAUGCCAACCGUGACGAGAAGGCACUUGGG [Exclusion 1 (Mod 3.1 solution 40 by Eternabot)] (Eterna round: R97, puzzle: Exclusion 1) | 0.0444 µM | 0.282 µM | – | – | – | – |
| ACUAAGGUAGGAUAUACGUGCGUGAUCGUGCCUUAGCUGGCACAUGAGGAUCACCCAUGUAGAAGGGCCAGACA [Esraleon] (Eterna round: R97, puzzle: Exclusion 2) | 0.0174 µM | 0.0198 µM | – | – | – | – |
| AGUACUAACACGGAAGUGUUAGUACAAUAAGCUUGUGAAACAUGAGGAUCACCCAUGUCCUCAUAAGCUCGUCUUAU [salish99_TOv2_r3_026] (puzzle: Sensor v3, turn-off variant 2) | – | – | 0.315 µM | – | 0.0111 µM | 0.0181 µM |
| ACAAGAGCGGAAGGAUAUUGUACAUGAGGAUCACCCAUGUAAUAAAUGAGGAUCACGGAUGUAGUCAAGAAGGUCCGGAUAAGA [Ostracism 1 - Jieux - Exclusion NG 2] (Eterna round: R96, puzzle: Exclusion NG 2) | 0.0477 µM | 0.0506 µM | – | 0.0608 µM | – | – |
| AUACAGGAUGUCAGGAUAUGUUGUAGGUUCCGACGACAGAAGGGACAUGAGGAUCACCCAUGUAGGCCUUUGCU [BmEX4 C.7] (Eterna round: R97, puzzle: Brourd's mod of Exclusion 4) | 0.0314 µM | 0.0151 µM | – | – | – | – |
| UGUUGUCGCGCAGGAUAUGAGGAUCACCCAUAUGGAGGAUAUGAAAAGAAGGUUCUGAGGAUCACCCAGAAGGGCGGGACAACU [pwkr exNG2 2xF5 2xFMN.20] (Eterna round: R96, puzzle: Exclusion NG 2) | 0.261 µM | 0.0606 µM | – | 0.043 µM | – | – |
| ACCUCACAUGAGGAUCACCCAUGUAAGGAUAUCUUCGCUUUGACGUUGCUCUAUGCGAAGAGAAGGUACACGGA [Xeteed] (Eterna round: R97, puzzle: Exclusion 1) | 0.0848 µM | 0.0206 µM | – | – | – | – |
| GCAGCAUAGUUUACUAACUGUUACAUGAGGAUCACCCAUGUUGAGGAUAUGGUCUGGAUUACAGGCCAGAAGGCGACAAGCUGC [Eli exng3 - 028] (Eterna round: R96, puzzle: Exclusion NG 3) | 0.0181 µM | 0.0169 µM | – | 0.013 µM | – | – |
| GGUCUACAUGAGGAUCACCCAUGUAAGGAUAUCUACAUUGAAGCUUCGGCUUCAAUGUAGAGAAGGUGCAUAAU [E1/11-B1] (Eterna round: R97, puzzle: Exclusion 1) | 0.0373 µM | 0.0314 µM | – | – | – | – |
| UUAUCCCAUGUGAGGAUAUUAUUUUAAAGAUGCAAUGAGAAGGUACAUGAGGAUCACCCAUGUCCGCGAAAUAU [Eternabot (L2) Solution 57] (Eterna round: R97, puzzle: Brourd's mod of Exclusion 4) | 0.0154 µM | 0.0154 µM | – | – | – | – |
| CUGGUCCGAGGAUAUAUGAUGUGAUACAUGAGGAUCACCCAUGUUAUAUUAUGGAUGUAAAUAGAAGGCGGACUAG [Mat - Exclusion 5 - JL mod - D71] (puzzle: Exclusion 5) | – | – | 0.0722 µM | – | 0.0712 µM | 0.0739 µM |
| UUUUUAUAUGAAGGAUAUACUUAACAUGAGGAUCACCCAUGUGGUGUUGUGAGUGAGUGAGUUUAGUAGAAGGUCAAGUAUUUC [JMF's solution 43] (Eterna round: R96, puzzle: Exclusion NG 2) | 0.752 µM | 0.731 µM | – | 0.329 µM | – | – |
| GAAGAAGAGAGAAUAGAAAACAUGAGGAUCACCCAUGUUAAGAGAUGAGGGUGUAAUAGGAUUUUUGCUCGUCUUAU (puzzle: Sensor v3, turn-off variant 1) | – | – | 0.054 µM | – | 0.0383 µM | 0.0405 µM |
| UUAAUGUGAGGAUAUGGUAAAGAUAGAAUGAUGAAAGAACUCCAGAAGGCACAUGAGGAUCACCCAUGUAGAUG [Mat - Exclusion 4 - Mod of JL - D28] (puzzle: Exclusion 4) | – | – | 0.0305 µM | – | 0.0683 µM | 0.042 µM |
| UAUUAAACAAGCAGAUCCCACAUGAGGAUCACCCAUGUGCUCGUCUUAUAAGGUACUGUGACGAUAGUCACGGUACC [Mat - Sensor, turn-off var - Eli Mod - D62] (Eterna round: R97, puzzle: Sensor, turn-off variant 1) | 0.049 µM | 0.0545 µM | – | – | – | – |
